Source: US20220010021A1 (Sanofi, published 2022)
Where a chain is given by its changes, count along the chain named. Names and notes keep the numbering of the source.

T1: human beta-Klotho (KLB) (human, UniProt Q86Z14 53-997)
T1 construct: bought protein, used as analyte in the off-rate screening; also called human KLB; β-Klotho
T1 sequence (looked up): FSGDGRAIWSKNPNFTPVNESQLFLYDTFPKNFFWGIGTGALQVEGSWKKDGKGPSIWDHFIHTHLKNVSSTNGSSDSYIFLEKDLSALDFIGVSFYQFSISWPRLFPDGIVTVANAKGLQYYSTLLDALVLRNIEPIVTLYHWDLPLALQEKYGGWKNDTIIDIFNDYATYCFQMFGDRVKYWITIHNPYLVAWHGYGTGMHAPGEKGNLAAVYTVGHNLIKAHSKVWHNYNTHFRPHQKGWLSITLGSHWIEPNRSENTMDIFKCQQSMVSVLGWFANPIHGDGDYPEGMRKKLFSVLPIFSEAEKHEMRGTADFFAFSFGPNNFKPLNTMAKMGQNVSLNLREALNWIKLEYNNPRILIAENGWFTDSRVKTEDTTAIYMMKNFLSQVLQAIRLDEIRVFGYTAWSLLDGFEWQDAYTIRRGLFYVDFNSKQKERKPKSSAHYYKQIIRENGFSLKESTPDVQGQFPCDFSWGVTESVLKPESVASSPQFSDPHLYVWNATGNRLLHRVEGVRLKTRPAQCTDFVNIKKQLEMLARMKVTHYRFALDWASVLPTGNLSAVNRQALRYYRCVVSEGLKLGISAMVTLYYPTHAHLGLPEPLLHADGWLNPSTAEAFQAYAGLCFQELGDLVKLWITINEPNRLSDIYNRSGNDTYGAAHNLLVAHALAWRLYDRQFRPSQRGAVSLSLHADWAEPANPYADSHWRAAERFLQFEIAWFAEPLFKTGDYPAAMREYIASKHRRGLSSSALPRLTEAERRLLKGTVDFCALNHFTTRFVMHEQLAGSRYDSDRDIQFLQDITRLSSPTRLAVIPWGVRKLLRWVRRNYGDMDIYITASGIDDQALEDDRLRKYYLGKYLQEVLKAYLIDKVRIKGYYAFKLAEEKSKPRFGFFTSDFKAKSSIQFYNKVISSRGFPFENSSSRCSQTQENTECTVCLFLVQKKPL

B1: 16H7 variant with light chain substitution P54F (antibody, V domains shown)
VH: not shown
VL: SYVLTQPPSVSVAPGQTARITCGGNNIGSESVHWYQQKPGQAPVLVVYDDSDRFSGIPERFSGSNSGNTATLTISRVEAGDEADYYCQVWDGNSDHVVFGGGTKLTVLG
B2: 16H7 variant with light chain substitution R53P (antibody, V domains shown)
VH: not shown
VL: B1 VL with R53P, F54P
B3: 16H7 variant with light chain substitution R53H (antibody, V domains shown)
VH: not shown
VL: B1 VL with R53H, F54P
B4: 16H7 variant with light chain substitution P54V (antibody, V domains shown)
VH: not shown
VL: B1 VL with F54V
B5: 16H7 variant with light chain substitution P54M (antibody, V domains shown)
VH: not shown
VL: B1 VL with F54M
B6: 16H7 variant with light chain substitution R53S (antibody, V domains shown)
VH: not shown
VL: B1 VL with R53S, F54P
B7: 16H7 variant with light chain substitution S51E (antibody, V domains shown)
VH: not shown
VL: B1 VL with S51E, F54P
B8: 16H7 variant with light chain substitution R53K (antibody, V domains shown)
VH: not shown
VL: B1 VL with R53K, F54P
B9: 16H7 variant with light chain substitution S51D (antibody, V domains shown)
VH: not shown
VL: B1 VL with S51D, F54P
B10: 16H7 variant with light chain substitution P54W (antibody, V domains shown)
VH: not shown
VL: B1 VL with F54W
B11: 16H7 variant with light chain substitution R53I (antibody, V domains shown)
VH: not shown
VL: B1 VL with R53I, F54P
B12: 16H7 variant with light chain substitution S51A (antibody, V domains shown)
VH: not shown
VL: B1 VL with S51A, F54P
B13: 16H7 variant with light chain substitution P54G (antibody, V domains shown)
VH: not shown
VL: B1 VL with F54G
B14: 16H7 variant with light chain substitution P54H (antibody, V domains shown)
VH: not shown
VL: B1 VL with F54H
B15: 16H7 variant with light chain substitution R53Q (antibody, V domains shown)
VH: not shown
VL: B1 VL with R53Q, F54P
B16: 16H7 variant with light chain substitution S51C (antibody, V domains shown)
VH: not shown
VL: B1 VL with S51C, F54P
B17: 16H7 variant with light chain substitution P54T (antibody, V domains shown)
VH: not shown
VL: B1 VL with F54T
B18: 16H7 variant with light chain substitution R53C (antibody, V domains shown)
VH: not shown
VL: B1 VL with R53C, F54P
B19: 16H7 variant with light chain substitution R53A (antibody, V domains shown)
VH: not shown
VL: B1 VL with R53A, F54P
B20: 16H7 variant with light chain substitution P54Y (antibody, V domains shown)
VH: not shown
VL: B1 VL with F54Y
B21: 16H7 variant with light chain substitution R53T (antibody, V domains shown)
VH: not shown
VL: B1 VL with R53T, F54P
B22: 16H7 variant with light chain substitution S55C (antibody, V domains shown)
VH: not shown
VL: B1 VL with F54P, S55C
B23: 16H7 variant with light chain substitution S55E (antibody, V domains shown)
VH: not shown
VL: B1 VL with F54P, S55E
B24: 16H7 variant with light chain substitution P54S (antibody, V domains shown)
VH: not shown
VL: B1 VL with F54S
B25: 16H7 variant with light chain substitution P54K (antibody, V domains shown)
VH: not shown
VL: B1 VL with F54K
B26: 16H7 variant with light chain substitution P54I (antibody, V domains shown)
VH: not shown
VL: B1 VL with F54I
B27: 16H7 variant with light chain substitution S55D (antibody, V domains shown)
VH: not shown
VL: B1 VL with F54P, S55D
B28: 16H7 variant with light chain substitution P54N (antibody, V domains shown)
VH: not shown
VL: B1 VL with F54N
B29: 16H7 variant with light chain substitution R53L (antibody, V domains shown)
VH: not shown
VL: B1 VL with R53L, F54P
B30: 16H7 variant with light chain substitution S51G (antibody, V domains shown)
VH: not shown
VL: B1 VL with S51G, F54P
B31: 16H7 variant with light chain substitution P54L (antibody, V domains shown)
VH: not shown
VL: B1 VL with F54L
B32: 16H7 variant with light chain substitution R53M (antibody, V domains shown)
VH: not shown
VL: B1 VL with R53M, F54P
B33: 16H7 variant with light chain substitution S51V (antibody, V domains shown)
VH: not shown
VL: B1 VL with S51V, F54P

Assays:
[1] = biological target: T1, human beta-Klotho (KLB); assay: BLI off-rate screening, mAb captured, KLB analyte;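 further: Off-rate taken from the dissociation phase, biosensors held in D-PBS with 0.1% BSA over 1800 s, antibody supernatants diluted to 25 µg/mL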
[2] = biological target: human FGFR1c/KLB receptor complex on iLite FGF21 Assay Ready Cells (human, UniProt P11362 22-822; Q86Z14 1-1044); assay: cell-based or functional assay; on Mean E max (%): reference of the scale not given here
human FGFR1c/KLB receptor complex on iLite FGF21 Assay Ready Cells, sequence (P11362 22-822, chain 1 of 2): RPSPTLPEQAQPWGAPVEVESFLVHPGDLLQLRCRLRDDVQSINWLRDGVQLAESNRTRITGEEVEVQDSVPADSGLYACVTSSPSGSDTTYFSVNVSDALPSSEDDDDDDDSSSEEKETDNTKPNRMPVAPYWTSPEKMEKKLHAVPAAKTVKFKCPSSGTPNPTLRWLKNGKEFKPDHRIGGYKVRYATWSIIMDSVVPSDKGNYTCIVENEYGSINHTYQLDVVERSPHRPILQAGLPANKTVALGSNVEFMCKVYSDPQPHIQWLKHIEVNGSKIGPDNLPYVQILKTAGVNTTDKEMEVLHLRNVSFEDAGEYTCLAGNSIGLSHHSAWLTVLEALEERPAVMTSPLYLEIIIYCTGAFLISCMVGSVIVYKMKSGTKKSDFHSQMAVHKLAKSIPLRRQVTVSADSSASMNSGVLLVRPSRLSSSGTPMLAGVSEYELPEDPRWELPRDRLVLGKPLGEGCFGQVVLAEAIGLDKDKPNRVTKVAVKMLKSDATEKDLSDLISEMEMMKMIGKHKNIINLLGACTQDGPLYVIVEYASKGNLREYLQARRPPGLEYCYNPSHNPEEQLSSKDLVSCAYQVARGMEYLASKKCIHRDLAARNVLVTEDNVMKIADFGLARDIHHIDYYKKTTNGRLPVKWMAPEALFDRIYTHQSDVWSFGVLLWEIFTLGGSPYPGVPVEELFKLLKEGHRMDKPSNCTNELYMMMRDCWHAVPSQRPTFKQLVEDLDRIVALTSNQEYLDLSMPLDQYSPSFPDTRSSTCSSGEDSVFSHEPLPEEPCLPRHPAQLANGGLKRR
human FGFR1c/KLB receptor complex on iLite FGF21 Assay Ready Cells, sequence (Q86Z14 whole entry, chain 2 of 2): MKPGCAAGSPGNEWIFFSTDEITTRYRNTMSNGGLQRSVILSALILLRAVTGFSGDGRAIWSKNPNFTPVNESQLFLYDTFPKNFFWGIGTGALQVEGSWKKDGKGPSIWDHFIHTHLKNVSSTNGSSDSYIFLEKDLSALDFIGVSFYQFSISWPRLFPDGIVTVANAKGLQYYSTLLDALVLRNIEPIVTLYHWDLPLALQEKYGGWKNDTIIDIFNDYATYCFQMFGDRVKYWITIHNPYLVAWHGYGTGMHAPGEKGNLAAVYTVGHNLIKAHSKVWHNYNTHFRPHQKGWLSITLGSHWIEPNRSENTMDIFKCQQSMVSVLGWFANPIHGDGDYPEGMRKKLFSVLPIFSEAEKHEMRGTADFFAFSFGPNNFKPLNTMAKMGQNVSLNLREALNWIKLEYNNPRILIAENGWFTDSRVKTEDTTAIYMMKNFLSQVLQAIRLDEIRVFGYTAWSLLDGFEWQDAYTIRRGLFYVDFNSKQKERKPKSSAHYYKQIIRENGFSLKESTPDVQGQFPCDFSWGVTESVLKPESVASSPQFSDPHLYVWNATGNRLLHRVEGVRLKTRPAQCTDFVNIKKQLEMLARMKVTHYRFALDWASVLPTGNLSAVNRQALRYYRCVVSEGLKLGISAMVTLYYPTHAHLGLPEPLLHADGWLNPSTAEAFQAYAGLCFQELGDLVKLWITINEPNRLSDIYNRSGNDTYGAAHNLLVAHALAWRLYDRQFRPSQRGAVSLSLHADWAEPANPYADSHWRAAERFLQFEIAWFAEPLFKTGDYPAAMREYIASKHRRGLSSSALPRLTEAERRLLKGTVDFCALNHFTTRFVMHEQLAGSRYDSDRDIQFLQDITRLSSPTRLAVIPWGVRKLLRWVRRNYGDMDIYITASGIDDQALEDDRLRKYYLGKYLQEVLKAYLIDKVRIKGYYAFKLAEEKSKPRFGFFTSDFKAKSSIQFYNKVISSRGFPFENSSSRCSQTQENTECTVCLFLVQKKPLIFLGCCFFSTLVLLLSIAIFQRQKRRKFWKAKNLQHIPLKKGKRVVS

Row | Binder | koff [1] [s⁻¹] | Mean E max (%) [2] [%] | Mean EC50 [2] [nM]
1 | B1 | 0.00012 | 105 | 0.143
2 | B2 | 0.00028 | 92 | 0.126
3 | B3 | 0.00015 | 103 | 0.153
4 | B4 | 4.1e-05 | 109 | 0.11
5 | B5 | 3.2e-05 | 98 | 0.087
6 | B6 | 0.00029 | 105 | 0.113
7 | B7 | 7.2e-05 | 107 | 0.108
8 | B8 | 4e-05 | 98 | 0.114
9 | B9 | 3.7e-05 | 97 | 0.098
10 | B10 | 0.00017 | 98 | 0.091
11 | B11 | 1.7e-05 | 100 | 0.151
12 | B12 | 4.7e-05 | 109 | 0.123
13 | B13 | 5.1e-05 | 114 | 0.141
14 | B14 | 0.00014 | 100 | 0.111
15 | B15 | 0.00024 | 100 | 0.131
16 | B16 | 4.7e-05 | 112 | 0.147
17 | B17 | 0.00018 | 108 | 0.113

Row | Binder | koff [1] [s⁻¹] | Mean E max (%) [2] [%] | Mean EC50 [2] [nM]
18 | B18 | 0.00044 | 107 | 0.147
19 | B19 | 0.0002 | 89 | 0.132
20 | B20 | 8.3e-05 | 110 | 0.15
21 | B21 | 8.7e-05 | 109 | 0.134
22 | B22 | 6.3e-05 | 91 | 0.244
23 | B23 | 3.8e-05 | 106 | 0.141
24 | B24 | 7.9e-05 | 102 | 0.103
25 | B25 | 0.00016 | 100 | 0.131
26 | B26 | 3.5e-05 | 112 | 0.115
27 | B27 | 3.6e-05 | 109 | 0.146
28 | B28 | 0.00014 | 105 | 0.15
29 | B29 | 2e-05 | 106 | 0.151
30 | B30 | 0.0001 | 104 | 0.129
31 | B31 | 9.6e-05 | 108 | 0.133
32 | B32 | 0.00018 | 95 | 0.099
33 | B33 | 2e-05 | 110 | 0.139
